One data set deals with P00330. The data set is described as follows: mass photometry. As to conditions: other: mass photometry.
Data set [1] addresses Alcohol dehydrogenase from baker's yeast (baker's yeast) (UniProt P00330). The data set is described as follows: cross-linking.
The target in data set [2] is subunits of the human 20S proteasome (28 subunits). The data set is described as follows: cross-linking.

Consider “Alcohol dehydrogenase from baker's yeast”, for which the “% monomers after 5 min in guanidine HCl (dMP)” value in the data set on P00330 is given as “∼34 % monomers”.
A word on the stoichiometry N: it is a count of units in the complex or per binding partner. Regarding “Alcohol dehydrogenase from baker's yeast (from UniProt P00330 1-348) (enzyme)”, in data set [1], the % of total counts as dimers (25:1 DSBU:ADH) came to 25%, the % of total counts as monomers (25:1 DSBU:ADH) stood at 50%, the % of total counts as tetramers (25:1 DSBU:ADH) came to 10% and the % of total counts as tetramers (DSBU molar excess ≥ 100) worked out at 53%. Further, in data set [1], the % of total counts as trimers (25:1 DSBU:ADH) stood at 14% and the stoichiometry N worked out at 4.
Regarding “subunits of the human 20S proteasome (28 subunits)”, in data set [2], the % covalently stabilised 20S proteasome (25:1 DSBU:20S) worked out at 16% and the % covalently stabilised 20S proteasome (400:1 DSBU:20S) came out at 25%.

For the origin of these results see paper doi:10.1101/2023.05.30.542861.
